Results on 8 molecules are retold here after patent US20240383974A1 (BETTA PHARMACEUTICALS, published 2024).

For assay [1], the target named is T1, GARP-TGF-β complex (293-GARP/TGFβ stably transfected cells) (UniProt Q14392 20-662; P01137 30-390).
T1 construct: whole, on cells; Complex of GARP and (latent) TGF-β on the cell surface; also called 293-GARP/TGFβ cell; 293F-GAPR/TGFβ/αvβ6 cells
Put plainly: FACS on 293-GARP/TGFβ cells.

Assay [2] addresses T2, human PD-L1 (human, UniProt Q9NZQ7 19-290).
T2 construct: whole, on cells; also called hPD-L1; PD-L1 antigen on MDA-MB-231 cells
Put plainly: FACS on MC38-hPD-L1 cells.

Assay [3] addresses T1, GARP-TGF-β complex (293-GARP/TGFβ …). Briefly: cell-based or functional assay.
In assay [4] the target is T2, human PD-L1. Briefly: cell-based or functional assay.
The target of assay [5] is T1, GARP-TGF-β complex (293-GARP/TGFβ …). Briefly: FACS on 293-GARP/TGFβ cells. This is another data set of the same source.
Assay [6] has as its target T3, human transforming growth factor β1 (human, UniProt P01137 279-390).
T3 construct: Coated on the ELISA plate at 100 ng/well; also called hTGF-β1; TGF-β
Put plainly: ELISA, plate-coated hTGF-β1.

Assay [7] addresses T4, GARP (CHO-K1-GARP cell line that overexpresses GARP) (UniProt Q14392 20-662, limits assumed).
T4 construct: whole, on cells; also called GARP protein
T4 sequence (looked up): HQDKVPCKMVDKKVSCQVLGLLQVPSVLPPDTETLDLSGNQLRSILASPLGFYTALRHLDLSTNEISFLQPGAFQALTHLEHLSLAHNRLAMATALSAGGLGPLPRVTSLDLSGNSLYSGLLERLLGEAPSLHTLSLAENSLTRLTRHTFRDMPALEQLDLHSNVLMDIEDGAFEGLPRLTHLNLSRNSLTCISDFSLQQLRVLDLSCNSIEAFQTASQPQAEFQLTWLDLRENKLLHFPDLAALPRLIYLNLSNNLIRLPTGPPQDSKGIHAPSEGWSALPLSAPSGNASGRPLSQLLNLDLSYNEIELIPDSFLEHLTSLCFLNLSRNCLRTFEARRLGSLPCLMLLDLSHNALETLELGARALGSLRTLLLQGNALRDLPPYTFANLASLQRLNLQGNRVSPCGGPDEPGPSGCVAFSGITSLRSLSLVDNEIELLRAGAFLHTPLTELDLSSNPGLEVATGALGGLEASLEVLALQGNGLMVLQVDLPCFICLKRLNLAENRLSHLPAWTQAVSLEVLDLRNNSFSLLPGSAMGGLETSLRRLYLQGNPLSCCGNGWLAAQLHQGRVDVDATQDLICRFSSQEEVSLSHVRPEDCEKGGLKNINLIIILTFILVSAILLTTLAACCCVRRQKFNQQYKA
Briefly: FACS on CHO-K1-GARP cells.

The target in assay [8] is T1, GARP-TGF-β complex (293-GARP/TGFβ …). Put plainly: FACS on 293-GARP/TGFβ cells. The source holds these as a separate data set.
The target of assay [9] is T4, GARP (CHO-K1-GARP cell line that …). Put plainly: FACS on CHO-K1-GARP cells. The source holds these as a separate data set.

Read-outs that look alike come from different tables or passages of the source. A value given as a limit tells only on which side of the number the result lay.

T2 sequence (Q9NZQ7 19-290): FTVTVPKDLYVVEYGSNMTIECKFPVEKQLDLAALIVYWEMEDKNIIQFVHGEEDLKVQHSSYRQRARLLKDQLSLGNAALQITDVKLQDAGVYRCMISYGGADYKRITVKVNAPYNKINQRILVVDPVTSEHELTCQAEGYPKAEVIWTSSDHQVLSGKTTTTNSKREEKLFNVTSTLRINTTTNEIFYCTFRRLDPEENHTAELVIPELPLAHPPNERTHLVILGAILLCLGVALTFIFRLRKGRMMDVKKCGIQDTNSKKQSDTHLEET
T3 sequence (P01137 279-390 limits assumed): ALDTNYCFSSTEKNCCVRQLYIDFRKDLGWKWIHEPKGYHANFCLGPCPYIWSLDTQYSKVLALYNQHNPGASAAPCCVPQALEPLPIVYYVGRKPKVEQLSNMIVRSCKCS

B1: b202-L-D2hu (bispecific antibody, human IgG1, kappa)
heavy: not shown
light: DIVLTQSPDSLAVSLGERATINCRASESVTIIGTNLIQWFQQKPGQPPKLLIYHASNLETGVPDRFSGSGSRTDFTLTISSLQAEDVAVYYCLQSRQIPRTFGGGTKVEIKRTVAAPSVFIFPPSDEQLKSGTASVVCLLNNFYPREAKVQWKVDNALQSGNSQESVTEQDSKDSTYSLSSTLTLSKADYEKHKVYACEVTHQGLSSPVTKSFNRGECGGGGSGGGGSGGGGSGGGGSEVQLVESGGGLVQPGGSLRLSCAASGRDFLTYGMGWFRQAPGKGLEFVASINWSGSMTYYADSVKGRFTISRDNAKNSVYLQMNSLRAEDTAVYICAARRGAVTYASSNEYEHWGQGTQVTVSS
notes: also called b202-hu-L-D2hu
Take B1: the values for the EC50 (in [1]; with human PD-L1 [2]) were 5.4 nM and 0.39 nM, respectively. For the same molecule, in assay [3], the “IC50(nM), TGFβ reporter gene blocking (293F-GAPR/TGFβ/αvβ6 cells with 293-SBE-Luciferase cells)” value is 1.7 nM. Moreover, in the assay with human PD-L1 [4], the “IC50(nM), PD-1/PD-L1 NFAT-luciferase reporter (293T-hPD-L1 with Jurkat-PD1-CD3zeta-NFAT-Luc2 cells)” value worked out at 13 nM.

B2: b202-hu-H-D2hu (bispecific antibody, human IgG1, kappa)
heavy: not shown
light: DIVLTQSPDSLAVSLGERATINCRASESVTIIGTNLIQWFQQKPGQPPKLLIYHASNLETGVPDRFSGSGSRTDFTLTISSLQAEDVAVYYCLQSRQIPRTFGGGTKVEIKRTVAAPSVFIFPPSDEQLKSGTASVVCLLNNFYPREAKVQWKVDNALQSGNSQESVTEQDSKDSTYSLSSTLTLSKADYEKHKVYACEVTHQGLSSPVTKSFNRGEC
notes: also called b202-H-D2hu
As for B2, the EC50 in [1] was 5.6 nM; with human PD-L1 [2] it was 0.34 nM. For the same molecule, the “IC50(nM), TGFβ reporter gene blocking (293F-GAPR/TGFβ/αvβ6 cells with 293-SBE-Luciferase cells)” value in [3] was found to be 4.9 nM. Besides, in the assay with human PD-L1 [4], the “IC50(nM), PD-1/PD-L1 NFAT-luciferase reporter (293T-hPD-L1 with Jurkat-PD1-CD3zeta-NFAT-Luc2 cells)” value stood at 7.8 nM.

B3: antibody m107 (antibody, V domains shown)
VH: QVHLQQSGAALARPGASVKMSCKASGYTFSAYTIHWVKQRPGQGLEWIGYINPSNDFAKYIQKFKDKATLTADKSSSTAYMQLNSLTSEDSAIYYCARVDYYGGSYRWYLDVWGAGTTVTVSS
VL: DIVLTQSPATLSVTPGDSVSLSCRASQSISNNLHWYQQKSHESPRLLIKYTSQSISGIPSRFSGSGSGTDFTLSINSVETEDFGMYFCQQSNSWPIFTFGSGTKLEIK
With B3, the values for the EC50 in assay [5], in assay [6] and in assay [7] were 3.2 nM, 0.021 nM and above 2 nM, respectively.

B4: antibody m305-hu (antibody, V domains shown)
VH: QVQLVQSGAEVKKPGASVKVSCKTSGYTFTDYNMNWVKQAPGQGLEWIGDINPYSGGTIYNQKFKGRATLTTDTSTSTAYMELRSLRSDDTAVYYCARVSKGSGDYWGQGTLVTVSS
VL: DIQMTQSPSSLSASVGDRVTITCRASQEISGYLSWLQQKPGGAPKRLIYAASTLDSGVPSRFSGSRSGTDYTLTISSLQPEDFATYYCLQYASYPTCTFGGGTKVEIK
notes: Humanized m305
Take B4: the figures for the EC50 in assay [8] and in assay [9] were 2.1 nM and 0.45 nM, respectively.

B5: antibody m212-hu (antibody, V domains shown)
VH: QVQLVQSGAEVKKPGSSVKVSCKASGYIFTSYWMHWVKQAPGQGLEWIGRIAPNSGGAHYHEKFKTKVTITADKSTSTAYMEFSSLRSEDTAVYYCARGNYGMDYWGQGTAVTVSS
VL: DIQMTQSPSSLSASVGDRVTITCRASQDISNYLNWYQQKPGGAPELLIYYTSTLHSGVPSRFSGSGSGTDYTLTISSLQPEDFATYFCQQVNTLPFTFGSGTKLEIK
notes: Humanized m212
With B5, the concentration for a half-maximal effect (EC50) is below 2 nM in [8] and 1.4 nM in assay [9]. Also, the binding result with human PD-L1 [2] is “no binding (tested: initial concentration 200 nM)”.

B6: antibody m212 (antibody, V domains shown)
VH: QVQLQQPGPELVKPGASVKLTCKASGYIFTSYWMHWVKRGPGRGLEWIGRIAPNSGGAHYHEKFKTKVTLTVDKPSSTAYMEFSSLTSEDSAVYYCARGNYGMDYWGQGTAVTVSS
VL: DIQMTQTTSSLSASLGDRVTISCRASQDISNYLNWYQQKPDGTVELLIYYTSTLHSGVPSRFSGSGSGTDYSLTISNLEQEDIATYFCQQVNTLPFTFGSGTKLEII
notes: Hybridoma-derived, expressed in mammalian cells; hIgG1 and hIgG4 as controls
Turning to B6, the concentration for a half-maximal effect (EC50) in [5] was below 2 nM; in assay [7] it was 0.46 nM.

B7: antibody m305 (antibody, V domains shown)
VH: EVQLQQSGPELVKPGASVKIPCKTSGYTFTDYNMNWVKQSHGKSLEWIGDINPYSGGTIYNQKFKGKAILTVDKSSSTAYMELRSLTSEDTGIYYCARVSKGSGDYWGQGTTLTVSS
VL: DIQMTQSPSSLSASLGERVSLTCRASQEISGYLSWLQQKPDGTIKRLIYAASTLDSGVPKRFSGSRSGSDYSLTISSLESEDFADYYCLQYASYPTCTFGGGTKLEIK
In the case of B7, the EC50 is 4.1 nM in assay [5] and below 1 nM in assay [7].

B8: antibody m301 (antibody, V domains shown)
VH: QVQLKESGPGLVAPSQSLSITCTVSGFSLTTYGVTWVRQPPGKGLQWLGLIWGDGTTDYHSTFISRLSISKDKSKNQVFFKLNSLQTDDTATYYCASYYFAMHYWGQGTSVTVSS
VL: DIVMSQSPSSLAVSAGEKVTMNCKSSQSLLNSRTQKNYLAWYQQKPGQSPKLLIYWASTRESGVPDRFTGSGSGTDFTLTIISVQAEDLAVYYCKQSYNLWTFGGGTKLEIK
Consider B8, for which the results for the 50% effective concentration (EC50) in assay [5] and in assay [6] were 2.5 nM and below 1 nM, respectively.

Usually EC50 stands for the concentration needed to bring the measured effect to its halfway point. A low value points to higher potency in that assay.
